Measurements taken from PMC6120219.

Target: T1, human TRAP1 (TNF receptor-associated protein 1), full-length WT without mitochondrial signal sequence (human) (UniProt Q12931)
T1 sequence: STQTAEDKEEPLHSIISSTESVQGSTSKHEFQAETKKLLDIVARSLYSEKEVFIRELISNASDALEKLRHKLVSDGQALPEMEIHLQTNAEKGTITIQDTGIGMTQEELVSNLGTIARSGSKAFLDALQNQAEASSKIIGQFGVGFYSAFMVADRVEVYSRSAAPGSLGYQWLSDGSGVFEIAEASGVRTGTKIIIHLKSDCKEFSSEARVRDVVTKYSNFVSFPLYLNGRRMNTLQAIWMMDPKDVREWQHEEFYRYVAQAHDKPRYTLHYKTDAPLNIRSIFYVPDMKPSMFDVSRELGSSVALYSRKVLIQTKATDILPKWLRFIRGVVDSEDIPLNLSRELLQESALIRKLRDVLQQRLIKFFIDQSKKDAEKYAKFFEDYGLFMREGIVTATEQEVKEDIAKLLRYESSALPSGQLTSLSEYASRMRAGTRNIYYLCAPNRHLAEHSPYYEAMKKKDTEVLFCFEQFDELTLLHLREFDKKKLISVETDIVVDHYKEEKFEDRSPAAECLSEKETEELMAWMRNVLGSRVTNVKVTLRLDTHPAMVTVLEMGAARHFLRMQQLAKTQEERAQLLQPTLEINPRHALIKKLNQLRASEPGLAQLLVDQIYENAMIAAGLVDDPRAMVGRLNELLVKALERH

- Vmax of ATPase activity of the WT:D158N heterodimer mixture, ATP titration with CaCl2 (μM ATP min^−1/μM ATPase): 2.31
- Vmax of ATPase activity of the WT:D158N heterodimer mixture, ATP titration with MgCl2 (μM ATP min^−1/μM ATPase): 3.77
B1: human TRAP1 D158N point mutant (natural protein)
chain: STQTAEDKEEPLHSIISSTESVQGSTSKHEFQAETKKLLDIVARSLYSEKEVFIRELISNASDALEKLRHKLVSDGQALPEMEIHLQTNAEKGTITIQNTGIGMTQEELVSNLGTIARSGSKAFLDALQNQAEASSKIIGQFGVGFYSAFMVADRVEVYSRSAAPGSLGYQWLSDGSGVFEIAEASGVRTGTKIIIHLKSDCKEFSSEARVRDVVTKYSNFVSFPLYLNGRRMNTLQAIWMMDPKDVREWQHEEFYRYVAQAHDKPRYTLHYKTDAPLNIRSIFYVPDMKPSMFDVSRELGSSVALYSRKVLIQTKATDILPKWLRFIRGVVDSEDIPLNLSRELLQESALIRKLRDVLQQRLIKFFIDQSKKDAEKYAKFFEDYGLFMREGIVTATEQEVKEDIAKLLRYESSALPSGQLTSLSEYASRMRAGTRNIYYLCAPNRHLAEHSPYYEAMKKKDTEVLFCFEQFDELTLLHLREFDKKKLISVETDIVVDHYKEEKFEDRSPAAECLSEKETEELMAWMRNVLGSRVTNVKVTLRLDTHPAMVTVLEMGAARHFLRMQQLAKTQEERAQLLQPTLEINPRHALIKKLNQLRASEPGLAQLLVDQIYENAMIAAGLVDDPRAMVGRLNELLVKALERH
